Measurements reported in the supplement of paper PMC9112550, “Optimization of the antimicrobial peptide Bac7 by deep mutational scanning” (BMC Biology, 2022).

Tested on: Escherichia coli TOP10
Assay: shrunken log2 fold change of peptide-encoding DNA abundance (4.5 h post-induction vs induction); higher = less antimicrobial activity (less host growth inhibition)
Settings: time post-induction: 4.5 h; library: site-saturation at positions 5, 18, 19, 20
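Also: peptides expressed intracellularly from a pBAD plasmid library in pooled LB shake-flask culture, induced with 0.3% L-arabinose, DNA abundance read by NGS, three biological replicates, DESeq2 with apeglm shrinkage.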

Sequence	shrunken log2 fold change
RRIRWRPPRLPRPRPRPFEVPRP	0.0389
RRIRARPPRLPRPRPRPFDQPRP	0.249
RRIRNRPPRLPRPRPRPAERPRP	-0.117
RRIRWRPPRLPRPRPRPCSCPRP	0.0968
RRIRFRPPRLPRPRPRPTVFPRP	-0.0947
RRIRPRPPRLPRPRPRPSIIPRP	-0.634
RRIRCRPPRLPRPRPRPPFDPRP	0.415
RRIRVRPPRLPRPRPRPEPWPRP	0.128
RRIRVRPPRLPRPRPRPQARPRP	-0.109
RRIRMRPPRLPRPRPRPDPDPRP	0.634
RRIRHRPPRLPRPRPRPHVVPRP	-0.0954
RRIRNRPPRLPRPRPRPAECPRP	0.0508
RRIRPRPPRLPRPRPRPKMEPRP	-0.0537
RRIRSRPPRLPRPRPRPRQEPRP	-0.0798
RRIRNRPPRLPRPRPRPPAMPRP	0.124
RRIRERPPRLPRPRPRPSCGPRP	0.0151
RRIRCRPPRLPRPRPRPVIGPRP	-0.18
RRIRMRPPRLPRPRPRPLAMPRP	0.548
RRIRTRPPRLPRPRPRPFVAPRP	-0.0696
RRIRGRPPRLPRPRPRPTALPRP	1.12
RRIRYRPPRLPRPRPRPYQDPRP	-1.1
RRIRSRPPRLPRPRPRPFAFPRP	-0.0807
RRIRGRPPRLPRPRPRPQQFPRP	0.239
RRIRDRPPRLPRPRPRPKNRPRP	0.0678
RRIRQRPPRLPRPRPRPDGSPRP	-0.0176

Sequence	shrunken log2 fold change
RRIRPRPPRLPRPRPRPTWMPRP	-0.0166
RRIRQRPPRLPRPRPRPPEEPRP	-0.00674
RRIRLRPPRLPRPRPRPFSMPRP	-0.0455
RRIRPRPPRLPRPRPRPLFEPRP	0.163
RRIRKRPPRLPRPRPRPETEPRP	0.0991
RRIRTRPPRLPRPRPRPWWMPRP	-0.133
RRIRRRPPRLPRPRPRPASCPRP	0.0969
RRIRDRPPRLPRPRPRPVHYPRP	0.0175
RRIRRRPPRLPRPRPRPLVEPRP	0.116
RRIRHRPPRLPRPRPRPLSGPRP	-0.35
RRIRCRPPRLPRPRPRPGFLPRP	-0.245
RRIRDRPPRLPRPRPRPEISPRP	0.134
RRIRMRPPRLPRPRPRPRWNPRP	0.197
RRIRRRPPRLPRPRPRPFAAPRP	0.98
RRIRPRPPRLPRPRPRPTVVPRP	0.0581
RRIRPRPPRLPRPRPRPPSMPRP	0.29
RRIRSRPPRLPRPRPRPAWNPRP	0.467
RRIRWRPPRLPRPRPRPRWPPRP	0.598
RRIRVRPPRLPRPRPRPFNCPRP	-0.0327
RRIRLRPPRLPRPRPRPYNCPRP	-0.053
RRIRERPPRLPRPRPRPNGNPRP	-0.104
RRIRHRPPRLPRPRPRPLVYPRP	-0.0877
RRIRDRPPRLPRPRPRPPHKPRP	0.0115
RRIRIRPPRLPRPRPRPPVEPRP	-0.0536
RRIRDRPPRLPRPRPRPDTNPRP	-0.0518
